Laboratory results taken from the DeepSol protein solubility set.

Assay: soluble on expression in E. coli; label from the status in PepcDB or PDB records
For “MGSDKIHHHHHHMTKNTVRTYIKQTWKTLTRSHQHLLESAQDTKLEHQPNTPWIIYISPQEDCNTVQSVLERSLSAKEMQQIEIRTLPSEVEAIQEHGLLYLPGAYVVPGGRFNEMYGWDSYFILLGLLQDEEWELAQSQVDQLLYQVQHYGTILNANRTYMLTRSQPPVLSMMVLALFQHTQDQAWLKSTLPLLEQFYYYWVVPPHLNSATGLSRYYALGEGAAPEVLFSELDETGRSHYERVKEYYKTFEIDDYDVSLFYDSERDELTDLFYKGDRSMRESGFDITNRFGPFSVDIVHYAPVCLNSLLYQMEQDLAQIHKILDNPELAEQWSDRATLRRERINQYLWDEEKGIYLDYHFYSGKRRHYEFATTFYPLWTGLSSPEQAQRIVENLSLFTAPGGIFTSTHVTGNQWDAPFGWAPLTLIAVQGLYRYGYRKEGDDIAHKFLTMAIQEFTKYGFFVEKYDVERCSAQVSDEICFGYSSNEIGFGWTNGVILELLANLDDS”, the “soluble on expression in E. coli” value was “not soluble”. In the case of “MLLELPATNSALAIKSVLMAMTPNNDAILVVGERGHIINWQNDDNWQQLQSPVSVAITDVTILSDGSKVAVGHDGVILKVDSNSTTWRKVFTGKEITQFQIAQLKQQYQSLEQVILQTQDEDELEELTYQLDDLTFAIEDNQLELKSGPNKPLLSVTSTSNDTLFASGAYGILLSSKDKGETWQLVSNHLDNPDRFHLNTVIATADDQLYIVGENGMGFHSTDVGQTWSVMTLPYSGSLFGILANTVKTHTISTDDINSTKNKTQLVAFGLQGNIMVSLDGGGNWQHIKLPRSTSLLGGNFSKQGKVYLVGHGGVIVSFYPENLSTLTIKKHPSGAALSSVLVKDNSLILAGQFGISQWPIEAEELEHHHHHH”, the “soluble on expression in E. coli” value is reported as “not soluble”. With “MGSSHHHHHHGGTGENLYFQGGSGATAQNANPECVGPESPQAGIAPSCQGCPNAAICASAPKGPDPDIPLIRERLAGVKHKVMVVSGKGGVGKSTMTKELAFALGARGLSVGLMDMDICGPSLPRLTGVRGEDAHQSAGGIEPVLVDENVTMMSMHYLLSDKNEAVLFRGPRKNGVIKMFLKDVIWGNLDVLLIDTPPGTSDEHITVNSLLQQTTNGVDGAVLITTPQRVAEADVRREVNFCQKAKLPILGLVENMSGFVCPGCHKESQIFPKEEGGEGRKEGAGVRLSREFDVPLWGEVPLDPQLMKACEEGISFSEYVEKSGMTSSTTLDALFTVADQLIASLGIQVE” the “soluble on expression in E. coli” value was “not soluble”. With “MNGWNFQELKETPSQTGGPYVHIGLLPKQANIEVFEHNLDNNLVQDNTQGQRIRLEGQVFDGLSLPLRDVLIEIWQADTNGVYPSQADTQGKQVDPNFLGWGRTGADFGTGFWSFNTIKPGAVPGRKGSTQAPHISLIIFARGINIGLHTRVYFDDEAEANAKDPVLNSIEWATRRQTLVAKREERDGEVVYRFDIRIQGENETVFFDI” the “soluble on expression in E. coli” value was “soluble”. In the case of “MSLKSISLLLLSLLMITPSCQKPKEVTNEYNIVPQPNQLVPKEGRFELSNKVRLVVPSDAPEVKKVADGFAEQLKQTAGISLTEAESVDGKPAISFVLQEGMPKEGYKLSVTPTLITVTASQPNGFFYGVQTIYQLLPPAVYGKELKKKADWSVPAVEIEDAPRFVHRGLMLDVCRHYAPIEYIYKFIDLLAMNKMNVFHWHLTDDQGWRIEIKKYPKLTEIGSKREKTLVDYYYVNYPQVFDGIEHGGYYTQEQIKEVVAYAASKYINVIPEIEMPGHALAALAAYPELSCDSTQTYKVSPTWGVFEQVFCPSETTFKFFEGVMDEVVELFPSEYIHIGGDECPKTAWKNSTFCQQLIRQLGLKDDATPSKVDGVKHSKEDKLQSYFVTRMEKYLNGKGRNIIGWDEILEGGLAPNATVLSWRGVEGGLNAAKAGHNAIMAPMPYAYLDFYQEDPEIAPTTIGGYTTLKKTYSYNPVPDNADELVKKHIIGMQGNLWREYMKTSDRVDYQAFPRAMAIAETGWTLDANKNWKSFCERMVTEFERLEVMDTKPCLNFFDVNINTHADENGPLMVLLETFYPNAEIRYTTDGSEPTYGSTLYEQPFVLEGNIDLKAAAFKDGKMLGKVTNKPLYGNLLAGKEGHHHHHH”, the “soluble on expression in E. coli” value is reported as “soluble”. In the case of “MAGEKFQKKGKEKWKEKVWYTVEAPPYLGSKEVSVALGEDSNSMVNRVVEVPISELTGNFKKSNEKALFRITNCEGTKCKTIFIGHYIGDDYIRRLVRRRKERIDIIEDVKTSDNSIITVKIVVVTDGKVTNTKKFQIRKVLTDFILNKGLSLPYSEFVRYLIGDDIYNDMISATKDIYPLKKIEVRKSELVSLSGISEIHAGSQLEHHHHHH”, the “soluble on expression in E. coli” value is reported as “soluble”. For “MRAILILLDGLGDRASEILNNKTPLQFAKTPNLDRLAENGMCGLMTTYKEGIPLGTEVAHFLLWGYSLEEFPGRGVIEALGEDIEIEKNAIYLRASLGFVKKDEKGFLVIDRRTKDISREEIEKLVDSLPTCVDGYKFELFYSFDVHFILKIKERNGWISDKISDSDPFYKNRYVMKVKAIRELCKSEVEYSKAKDTARALNKYLLNVYKILQNHKINRKRRKLEKMPANFLLTKWASRYKRVESFKEKWGMNAVILAESSLFKGLAKFLGMDFIKIESFEEGIDLIPELDYDFIHLHTKETDEAAHTKNPLNKVKVIEKIDKLIGNLKLREDDLLIITADHSTPSVGNLIHSGESVPILFYGKNVRVDNVKEFNEISCSNGHLRIRGEELMHLILNYTDRALLYGLRSGDRLRYYIPKDDEIDLLEG”, the “soluble on expression in E. coli” value was “not soluble”. In the case of “MRGKLDLGEQPLVLIWEVTQACELACKHCRADAQPRRHPDELSTAEGKALLDQASEFGDGQLVVLSGGDPLARGDLPELVEYGTEQGLRMTLTPSGTNSITPERLAELDDAGLRRLALSIDGGDSDAHDTFRGESGSFEATMAAAEAARNLDIPLQINTTVCAETVEQLPAIRDLVADLDAVLWSVFFLVPVGRGRVLTPIDPERAERVLKWLHEVSDEASFGLKTTEAPHYRRVAMEQQDEGASGLKRRMGIRAGKGFAFVSHTGEVFPSGFLPKSAGSVREESVVDIYRDSPLFQQLRDDDALTGKCGACRYRTVCGGSRSRAYATTGDPLAADPLCDYRPDGFEGSVPDQHPAD”, the “soluble on expression in E. coli” value is reported as “not soluble”. With “MANRVTMMMKIFENQTAMLHKALNDQHTIESKYKQMETNYENLILKKNLLEGEIQRLRDPERVKSATKLERTKKPGKSEKKKDKDLERNISPNREFKSFEELHQIQETERNKTQLDNVLPQKSEMFKEERTKTKRGQSQNKSKVKIEDSKDSLPKKSDTQLGEQRKDQISSDQSKRAK” the “soluble on expression in E. coli” value was “soluble”. For “MGSDKIHHHHHHMSEAILNICSVSKRFGDNLANDDISLSLGKGEIVALLGENGAGKTTLMSILFGHYVPDSGKVLVEGRELPPGKPRAAIRAGIGMVHQHFSLAPNLTVLENVMAGTERLWHLRSGTSAARRKLHRICQRFGLTVEPDARVGDLSVGEQQRVEILKALYNDAHILVLDEPTAVLTNLEAERLFSTLKDMAREGLSLIFISHKLDEVMAAANRIVVLRGGRKVAERLAKETNKAELAELMVGRRVARPVREPSTPGEVVLKVADVSVSIDGVERLKSIDFSLRAGEVLGIIGVSGNGQTTLAHLLSGTLRRDKGDLLLFGEPIGDLTVDDAVRAGIGRIPEDRNKEGAIGEMAIWENAVLERLPRFSRYGLVDRPSGQAFAGQIIDAFDVRGGRPTTRTRLLSGGNMQKLILGRNLMDRPRILLAAQPARGLDEGAVAAVHERLLEARRAGTAVLLISEDLEEVMALADRIQAIVNGRLSPPIAADSASATKLGLMMAGEWNEEHEVPHAF”, the “soluble on expression in E. coli” value was “not soluble”. In the case of “MGSDKIHHHHHHMTQPELTPAQRTEVELLARGRADKSRVLRDLKLPETPEAAHALLLRLGVWDEARTPYADRLRAALNAVELPVPDFDPAEERLDLTHLPTFAIDDEGNQDPDDAVGVEDLGGGLTRLWVHVADVAALVAPDSPLDLEARARGATLYLPDRTIGMLPDELVAKAGLGLHEVSPALSICLDLDPDGNAEAVDVLLTRVKVQRLAYQEAQARLEAGEEPFVTLARLARASRRLREGEGALSIDLPEVRVKADETGASVFPLPKPEMRTVVQECMTLAGWGTAIFADDNEIPLPFATQDYPTREVAGDTLPAMWARRKTLARTRFQPSPGPHHGMGLDLYAQATSPMRRYLDLVVHQQLRAFLAGRDPLSSKVMAAHIAESQMNADATRQAERLSRRHHTLRFIAAQPERVWDAVVVDRRGAQATLLIPDLAFDVQVNTPAAPGTALQVQFADIDLPQMRVRARSV”, the “soluble on expression in E. coli” value is reported as “not soluble”. With “MPVGTAEGIYKRRAIGGTGRPECLPYHFHEMQGALAHRGALDYSALPVQGASWSDLDPLEFERFRRFIRESRGQGDKSLLDLPDVELAKALGAVKANHEVRTVRVLGLLLFGKEEALQRFIPTHEVAFQVLRGTRVEVNDFFRWPLLRTMEELLTRFRAWNHEEEVSFGLMRIGVPNYSERAFREGLANALIHRDYTRLGAVHVQWHEDRIEISNPGGFPEGIHLGNLLVAPPRPRNPLLADAFKRAGVVERTGRGIDIIFEEQLRNGRPAPSYEQSTPESVVLVLPGGEANLNFVRLIVEEGQARRPLRLDELLVLNGLWQERQLTTKEAARLIQKTEATARAVLERLVETGLIEARGTGRGRTYHLSASTYRRLGEEAAYVRLKGFEHQQMEQMVLEYVRAHGRITRREAAELCRIGPYQATRLLKRMVEQGKLTPHGVGKGTWYALRS” the “soluble on expression in E. coli” value was “soluble”. For “MGSDKIHHHHHHMISHKKDQAAGLRELTALEPNAGVRVFAVVGGRTGVGKTSSVINLAVALAKTGKRVLILDENPRHKDVNANLGLSARYDLLHVINQDKTLEQVMTQGPEDVLVLTAMRGIHSLAKLSSADQERLIQCFSELSQTVDVVLIDTAIGRTSRVVPLSLASQQVLIVLSASGKAITDAYALIKLISQEYARRDFLVLVNKVESESMGRDIFENIAGVAQKHLAVKLEWMGCILFDEKLQRSTRLCQPVVEIFPTSASAAGYRQLAEKLMRCAGPWTDNDGVENFMRRLIRTSHLDIADFTV”, the “soluble on expression in E. coli” value was “not soluble”. For “NNTPVTNKLKAYGDANFNFTNNSIADAEKQVQEAYKGLLNLNEKNASDKLLVEDNTAATVGNLRKLGWVLSSKNGTRNEKSQQVKHADEVLFEGKGGVQVTSTSENGKHTITFALA”, the “soluble on expression in E. coli” value was “soluble”. For “MEGDTISRMMGSGVQMDGKILQTFEKSFVQVQNILDHNRLLINEINQNHESKIPDNLGRNVGLIRELNNNVRRVAHLYVDLSNNFSKSMEASSEGDSSEGRGNRRIRPA”, the “soluble on expression in E. coli” value was “soluble”. For “MSLSIIVASTMSDSGKSFITTGLVRILNAKPLKIQNMSLNSISTWDGGEIAFIQAYQAWGAGLRPERYMNPILLKIMGKGLEVIFMGSSLGIMSGNEYYNLATEKLWKKVSQFLSNDVVIEAAGGIGEPNFIDKDITAIKVMKEKRIPAILVLDIDRGGAFASAYGTYMMLPQSVRENLKGFIINKFRGDEKFLNDAIKWLEEKTGMRYLGYLPFFSEPPIMPEDSMNVYNFGDGNVEVAIIAYPYMSNFNEFYALVKSNARVSFVRKPKETAKADLVILPGSRNTLESLKWLVENGFVEQLRQRSMNILGICGGFQILGKKIVDPYGIEAGYPTEYEGLGIFDINVHYSKDKVVSMTTGISEYGEMNGYEIRRGVIKYMGEKPLLKITLRNGEKVSVEDGAKKDNIIGISVHGTLFSDGMKKLLKEFNINIHSQSMEEEIKQQAIRVEQFLRKYLHIDEIVEIYKEGHHHHHH”, the “soluble on expression in E. coli” value was “not soluble”. For “MGSDKIHHHHHHMSISIYAFYNNKGGVGKTTLCSNAATLYAEKNPKTQVLVIDMCPQANISQFLLGGGKKGYQINQRLQSSATRKNIVGFIDWLLKGNSNFRKPNTSYQVPVYRYNPNISENLYLIAGDSFLESLSLALNYAVINPANIKAWSEYMTAIRRLCEYEYNSETYKDMVVFIDCNPSFSMYTQMALVSSDKIVVPMMADFSSLEGIKSLFMLLFGKYPSAALKQYADGIITFNNQVEHFQLKLPLIYEFVFNNYTIKDGVATAFDSIRTELIDFCYEQFNKFPSLFAPCQHTPTSSKEWENYYFSGIKDFHTSGKVSSSLGIPMSMLPKESKYIMPDGSVVRLPISNYSQALEEIELFVDKIH”, the “soluble on expression in E. coli” value was “not soluble”.
